# Columns and labels:
# Assay in all cases: NanoBiT (ratiometric protein-fragment complementation assay in live yeast)
# Conditions in all cases: four experimental replicates; read off a plot
# [1] = molecular target: Caf40
# [2] = molecular target: Eft2
# [3] = molecular target: Nmd2/Upf2 [S. cerevisiae]
substance,measurement,setting,value
Upf1-SmBiT (from UniProt P30771) C122S,other: NanoBiT ratio (log2 scale),[1],1.4 log2
same,other: NanoBiT ratio (log2 scale),[2],1.1 log2
Upf1-SmBiT mutant C122S [S. cerevisiae] / Nmd2/Upf2 [S. cerevisiae] chain 1 C122S,screen value,[3],-2.5 log2

# Source: paper PMC11573789
